In general, stoichiometry N refers to the number of molecules, sites or subunits per partner or assembly.

These results are taken from article PMC10474099, “SLC39A10 promotes malignant phenotypes of gastric cancer cells by activating the CK2-mediated MAPK/ERK and PI3K/AKT pathways” (Experimental & Molecular Medicine, 2023).

This data set deals with the molecule itself. The experiment in a line: native gel or EMSA; native PAGE with Coomassie blue staining; CK2β refolded in 20 mM Tris pH 7.2, 5 mM DTT with 4 μM ZnSO4 (presence of Zn2+); monomer to dimer.

B1: CK2β (casein kinase 2 regulatory β subunit), human, recombinant His-tagged (natural protein)
chain: not shown
notes: human CK2β (casein kinase 2 beta subunit), Gene ID 1460, CSNK2B; cloned into pET-28a(+); The plasmid is named pET-28a (+)-HIS-CK2β; also called CSNK2B; HIS-CK2β
In the case of B1, the “stoichiometry N” value came to 2.
